Measurements reported in the supplement of paper PMC10567573.

B1: EDARADD (parent)
chain: VEKVLRRWVDEEWPKRERGDPSRH

Variants of: B1
Assay: protein stability index of a GFP-peptide fusion (GPS, HEK-293T) (PSI 1-6); higher = more stable
Conditions: c terminus: a fixed tail appended
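Further: lentivirally expressed fusions sorted by FACS into six bins by GFP to DsRed ratio, PSI derived from sequencing read proportions per bin multiplied by bin number.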

Protein stability index: each site, then its substitutions
R18: S 2.83 | Y 2.44 | M 3.15 | D 3.18 | G 3.58 | L 2.81 | P 3.34 | E 3.73 | H 3.18 | V 2.99 | A 2.29 | N 3.22 | I 3.12 | C 2.91 | T 2.96 | F 2.5 | K 1.81 | W 2.64 | Q 3.53
V9: W 3.05 | E 4.17 | D 4.36 | M 3.17 | C 2.72 | S 4.07 | I 2.38 | K 2.9 | P 3.51 | Q 3.31 | F 2.55 | R 3.48 | G 3.83 | N 3.59 | T 3.72 | H 3.46 | Y 3.1 | A 3.57
V1: G 3.61 | F 1.98 | E 4.19 | K 2.85 | T 2.91 | I 2.2 | S 2.39 | C 2.77 | A 4.29 | L 2.19 | P 3.94 | M 2.95 | H 3.42 | W 2.28 | R 4.16 | N 3.91 | D 4.36 | Q 2.65 | Y 2.56
K15: I 2.82 | S 3.33 | V 2.29 | A 2.72 | P 3.58 | T 3.51 | N 2.25 | R 2.42 | W 1.71 | H 3.55 | Y 2.31 | L 2.41 | Q 2.24 | M 2.97 | E 3.96 | G 3.44 | C 3.18 | D 3.17 | F 2.74
W13: H 4 | I 3.35 | L 3.38 | C 3.21 | Y 2.79 | S 3.54 | N 3.86 | R 3.96 | A 3.42 | T 3.38 | G 4.24 | Q 3.94 | E 3.75 | D 3 | V 3.98 | P 3.75 | M 2.62 | F 2.01
R7: M 2.69 | V 3.43 | Q 3.45 | S 3.46 | C 2.35 | W 2.49 | G 3.98 | A 3.09 | Y 2.7 | E 3.91 | K 3.29 | T 3.6 | P 3.9 | F 3.61 | I 2.32 | H 3.56 | D 4.05 | L 2.62 | N 4.48
K3: W 1.36 | V 2.09 | Q 2.85 | I 1.25 | Y 2.77 | S 3.01 | F 2.21 | H 5.03 | N 3.26 | E 3.55 | P 3.8 | D 4.38 | G 4.05 | T 2.14 | C 3.38 | A 2.78 | L 2.41
W8: A 3.98 | N 5.25 | L 2.76 | K 4.43 | S 4.97 | T 4.06 | C 4.03 | D 4.56 | H 4.08 | Y 3.12 | G 4.8 | E 4.22 | P 4.71 | I 3.4 | F 3.34 | M 3.69 | R 4.13 | Q 4.78
E12: K 2.66 | R 3.4 | G 2.81 | P 2.4 | W 1.54 | V 2.12 | D 2.45 | H 1.99 | C 2.28 | Q 1.95 | N 1.92 | M 2.08 | S 2.36 | A 1.87 | F 1.78 | I 2.06 | T 2.27 | Y 1.81
E2: M 1.96 | V 1.63
